± gives the uncertainty stated by the source.
Assay: self-splicing fitness, log relative to wild type (ln ratio); higher = more splicing; Tetrahymena group I intron in knt gene, E. coli kanamycin selection, DiMSum; sequences stand for … in CUCUCU…GGAGGGAAAAGUUAUCAGGCAUGCACCUGGUAGCUAGUCUUUAAACCAAUAGAUUGCAUCGGUUUAAAAGGCAAGACCGUCAAAUUGCGGGAAAGGGGUCAACAGCCGUUCAGUACCAAGUCUCAGGGGAAACUUUGAGAUGGCCUUGCAAAGGGUAUGGUAAUAAGCUGACGGACAUGGUCCUAACCACGCAGCCAAGUCCUAAGUCAACAGAUCUUCUGUUGAUAUGGAUGCAGUUCACAGACUAAAUGUCGGUCGGGGAAGAUGUAUUCUUCUCAUAAGAUAUAGUCGGACCUCUCCUUAAUGGGAGCUAGCGGAUGAAGUGAUGCAACACUGGAGCCGCUGGGAACUAAUUUGUAUGCGAAAGUAUAUUGAUUAGUUUUGGAGUACUCGUGGUCG
How it was run: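 DiMSum derived fitness as the error-weighted combination of fold changes across replicates, kanamycin versus no kanamycin, normalised to wild type. E. coli BL21(DE3) held the library, which randomised all eight P1ex-region intron nucleotides within the knt kanamycin-resistance gene on pET-22b(+). Six replicate transformations grew overnight at 37°C or 30°C on LB agar with or without 25 μg/mL kanamycin, also containing 100 μg/mL carbenicillin, 50 μM IPTG and 0.2% rhamnose, and pooled colonies were amplicon-sequenced on an Illumina HiSeq 2500.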

Sequence	self-splicing fitness (ln) (30 °C)	self-splicing fitness (ln) (37 °C)
UCCGAGCAAUAUUACGUGAC	-4.99 ± 0.41	-2.66 ± 0.29
UCCGAGCAAUAUUACGUGUU	-2.75 ± 0.16	-2.36 ± 0.15
UCCGAGCAAUAUUACGUUAC	-3.25 ± 0.43	-1.63 ± 0.43
UCCGAGCAAUAUUACGUUCU	-3.44 ± 0.29	-2.62 ± 0.26
UCCGAGCAAUAUUACGUUUG	-3.31 ± 0.2	-3.36 ± 0.25
UCCUAGCAAUAUUACGAAAG	-2.86 ± 0.33	–
UCCUAGCAAUAUUACGAAAU	-3.19 ± 0.47	-0.807 ± 0.42
UCCUAGCAAUAUUACGAAUA	-2.81 ± 0.26	-1.98 ± 0.34
UCCUAGCAAUAUUACGACGU	-0.558 ± 0.098	-0.499 ± 0.11
UCCUAGCAAUAUUACGAGCA	-1.64 ± 0.42	-1.11 ± 0.23
UCCUAGCAAUAUUACGAUCU	–	-1.69 ± 0.37
UCCUAGCAAUAUUACGCAUU	-3.92 ± 0.21	-1.81 ± 0.11
UCCUAGCAAUAUUACGCCUC	-2.62 ± 0.27	-2.29 ± 0.39
UCCUAGCAAUAUUACGCUGC	–	-2.02 ± 0.29
UCCUAGCAAUAUUACGGAAU	-3.08 ± 0.15	-2.1 ± 0.21
UCCUAGCAAUAUUACGGAGA	-0.637 ± 0.072	-0.626 ± 0.079
UCCUAGCAAUAUUACGGUUC	-3.05 ± 0.2	-1.55 ± 0.17
UCCUAGCAAUAUUACGGUUG	-4.08 ± 0.22	-1.81 ± 0.14
UCCUAGCAAUAUUACGUCUA	–	-2.69 ± 0.38
UCCUAGCAAUAUUACGUCUC	-3.82 ± 0.23	-2.52 ± 0.21
UCCUAGCAAUAUUACGUGGA	-2.37 ± 0.16	-2.74 ± 0.23
UCCUAGCAAUAUUACGUGGC	-3.85 ± 0.24	-1.78 ± 0.2
UCCUAGCAAUAUUACGUGGU	-2.53 ± 0.1	-1.38 ± 0.096
UCCUAGCAAUAUUACGUUGA	-0.805 ± 0.071	0.0396 ± 0.089
UCGAAGCAAUAUUACGAAAA	-3.1 ± 0.3	-1.54 ± 0.21

Sequence	self-splicing fitness (ln) (30 °C)	self-splicing fitness (ln) (37 °C)
UCGAAGCAAUAUUACGAAGG	-1.84 ± 0.21	-2.47 ± 0.33
UCGAAGCAAUAUUACGAAUU	-3.1 ± 0.37	-2.21 ± 0.38
UCGAAGCAAUAUUACGACGG	-1.8 ± 0.17	-0.892 ± 0.18
UCGAAGCAAUAUUACGAGUC	-3.45 ± 0.42	–
UCGAAGCAAUAUUACGAUGA	-0.316 ± 0.068	0.368 ± 0.074
UCGAAGCAAUAUUACGCACA	-1.23 ± 0.13	-0.472 ± 0.16
UCGAAGCAAUAUUACGCAUC	-1.47 ± 0.29	-2.36 ± 0.3
UCGAAGCAAUAUUACGCCGU	-0.599 ± 0.12	-0.739 ± 0.12
UCGAAGCAAUAUUACGCCUU	-3.4 ± 0.25	-3.23 ± 0.26
UCGAAGCAAUAUUACGCGUU	-3.93 ± 0.21	-1.47 ± 0.18
UCGAAGCAAUAUUACGCUAG	-2.16 ± 0.14	-0.234 ± 0.14
UCGAAGCAAUAUUACGCUGG	-1.85 ± 0.13	-2.04 ± 0.16
UCGAAGCAAUAUUACGGAAU	-3.57 ± 0.24	-1.91 ± 0.23
UCGAAGCAAUAUUACGGGCG	0.0324 ± 0.093	-0.219 ± 0.1
UCGAAGCAAUAUUACGUAUA	-3.1 ± 0.22	-1.58 ± 0.18
UCGAAGCAAUAUUACGUCGU	-2.65 ± 0.2	-1.34 ± 0.15
UCGAAGCAAUAUUACGUGAA	-2.53 ± 0.13	-1.13 ± 0.12
UCGAAGCAAUAUUACGUGAU	-2.71 ± 0.16	-1.37 ± 0.17
UCGCAGCAAUAUUACGAAAA	-3.16 ± 0.43	-2.2 ± 0.46
UCGCAGCAAUAUUACGAGAU	-3.01 ± 0.25	-1.86 ± 0.25
UCGCAGCAAUAUUACGAGCG	-1.97 ± 0.12	-0.806 ± 0.13
UCGCAGCAAUAUUACGAGGC	-3.12 ± 0.24	-3.16 ± 0.26
UCGCAGCAAUAUUACGAGGG	-2.72 ± 0.11	-1.65 ± 0.13
UCGCAGCAAUAUUACGAUAA	-1.91 ± 0.14	-0.243 ± 0.14
UCGCAGCAAUAUUACGCAGU	-3.58 ± 0.2	-2.35 ± 0.2

Sequence	self-splicing fitness (ln) (30 °C)	self-splicing fitness (ln) (37 °C)
UCGCAGCAAUAUUACGCCUA	-1.21 ± 0.13	0.0885 ± 0.14
UCGCAGCAAUAUUACGCCUU	-1.44 ± 0.12	-0.631 ± 0.15
UCGCAGCAAUAUUACGCGAA	-1.65 ± 0.23	-2.45 ± 0.25
UCGCAGCAAUAUUACGCGCA	-0.382 ± 0.091	-0.601 ± 0.078
UCGCAGCAAUAUUACGGACG	-1.44 ± 0.15	-0.806 ± 0.13
UCGCAGCAAUAUUACGGAGG	-3.71 ± 0.18	-2.05 ± 0.15
UCGCAGCAAUAUUACGGGAA	-2.44 ± 0.15	-1.49 ± 0.13
UCGCAGCAAUAUUACGGUCA	-0.966 ± 0.1	0.119 ± 0.11
UCGCAGCAAUAUUACGUAAC	-3.25 ± 0.29	-1.73 ± 0.23
UCGCAGCAAUAUUACGUACG	-1.12 ± 0.12	-0.686 ± 0.13
UCGCAGCAAUAUUACGUAUA	-1.82 ± 0.11	-0.691 ± 0.12
UCGCAGCAAUAUUACGUGAA	-1.32 ± 0.078	-0.713 ± 0.086
UCGCAGCAAUAUUACGUGUG	-2.24 ± 0.074	-2.33 ± 0.12
UCGCAGCAAUAUUACGUUAA	-2.18 ± 0.12	-1 ± 0.096
UCGCAGCAAUAUUACGUUGG	-2.56 ± 0.11	-2.12 ± 0.12
UCGGAGCAAUAUUACGAACA	-2.3 ± 0.21	-1.25 ± 0.21
UCGGAGCAAUAUUACGACAU	-3.91 ± 0.041	-2.98 ± 0.052
UCGGAGCAAUAUUACGACCG	-2.42 ± 0.45	–
UCGGAGCAAUAUUACGAGGG	-3.58 ± 0.21	-2.94 ± 0.44
UCGGAGCAAUAUUACGCACU	-3.53 ± 0.25	-2.23 ± 0.23
UCGGAGCAAUAUUACGCCUG	-0.894 ± 0.26	–
UCGGAGCAAUAUUACGCGCG	-2.02 ± 0.18	-0.752 ± 0.2
UCGGAGCAAUAUUACGCUUA	-2.33 ± 0.33	-1.89 ± 0.41
UCGGAGCAAUAUUACGGCGC	-2.09 ± 0.31	–
UCGGAGCAAUAUUACGGGAG	–	-2.24 ± 0.44

Sequence	self-splicing fitness (ln) (30 °C)	self-splicing fitness (ln) (37 °C)
UCGGAGCAAUAUUACGGUAU	-3.24 ± 0.35	-2.16 ± 0.26
UCGGAGCAAUAUUACGUAAU	–	-1.86 ± 0.33
UCGGAGCAAUAUUACGUCAU	–	-2.37 ± 0.25
UCGGAGCAAUAUUACGUCGU	-1.37 ± 0.25	-1.73 ± 0.3
UCGGAGCAAUAUUACGUGCA	-0.902 ± 0.17	-1.03 ± 0.25
UCGGAGCAAUAUUACGUUGG	-2.09 ± 0.17	-1.77 ± 0.23
UCGUAGCAAUAUUACGACCA	-1.35 ± 0.3	–
UCGUAGCAAUAUUACGAUGG	-1.88 ± 0.12	-1.07 ± 0.14
UCGUAGCAAUAUUACGCAUG	-2.33 ± 0.18	-0.84 ± 0.16
UCGUAGCAAUAUUACGCCAU	–	-0.949 ± 0.45
UCGUAGCAAUAUUACGCCGU	-1.52 ± 0.14	-0.646 ± 0.16
UCGUAGCAAUAUUACGGCAG	-2.75 ± 0.13	-2.07 ± 0.15
UCGUAGCAAUAUUACGGCGA	-1.85 ± 0.37	-0.98 ± 0.2
UCGUAGCAAUAUUACGGCUA	-0.508 ± 0.32	-1.81 ± 0.23
UCGUAGCAAUAUUACGGGAA	-1.71 ± 0.2	-1.06 ± 0.16
UCGUAGCAAUAUUACGGGUC	-3.02 ± 0.26	-4.36 ± 0.46
UCGUAGCAAUAUUACGGUGC	-3.62 ± 0.33	-3.15 ± 0.47
UCGUAGCAAUAUUACGGUGG	-2.84 ± 0.098	-1.31 ± 0.086
UCGUAGCAAUAUUACGUCUC	-2.93 ± 0.19	-2.29 ± 0.22
UCGUAGCAAUAUUACGUUAU	-4.46 ± 0.42	-2.64 ± 0.34
UCGUAGCAAUAUUACGUUGU	-4.46 ± 0.46	-2.43 ± 0.23
UCUAAGCAAUAUUACGAAAA	–	-1.34 ± 0.29
UCUAAGCAAUAUUACGACCG	-0.676 ± 0.14	-0.00302 ± 0.22
UCUAAGCAAUAUUACGAGCA	-1.38 ± 0.15	-0.145 ± 0.15

Reference: the supplement of paper PMC7877785
